Assay results from doi:10.1101/2021.08.23.457419 (bioRxiv, 2021).
Where no end group is shown, it is not given here.

Legend:
[1] = biological target: T1, SARS-CoV-2 main protease (M^pro), wild type (SARS-CoV-2, UniProt P0DTD1); assay: cell-based or functional assay
[2] = biological target: T1, SARS-CoV-2 main protease (M^pro), wild …; assay: […]

Question: YLQYAVLRHKRREC (also: cyclic, mode of cyclization not given here) [cyclic peptide 1] was tested. Which “IC50, inhibition of M^pro proteolytic activity (FRET substrate cleavage)” value [1] did it give?
Answer: 70 nM

Question: What about the Ki [2] of the same binder?
Answer: 14 nM
